Numbered stars: 1 amine (or outer) side, 2 acyl side, 3 side chain; on linkers, the order of the positions; unused ones are H or OH. Square brackets hold non-standard residues; d marks the D form. Prk = N-ε-propargyloxycarbonyl-L-lysine, C#CCOC(=O)NCCCC[C@H](N[*:1])C(=O)[*:2]; PEG60k = one 60 kD PEG attached to the residue; Phe(4-Ac) = CC(=O)c1ccc(C[C@H](N)C(=O)O)cc1
T1: IL-2Rαβγ triple receptor (UniProt P01589 22-272; P14784 27-551; P31785 23-369)
T1 sequence (looked up) 1: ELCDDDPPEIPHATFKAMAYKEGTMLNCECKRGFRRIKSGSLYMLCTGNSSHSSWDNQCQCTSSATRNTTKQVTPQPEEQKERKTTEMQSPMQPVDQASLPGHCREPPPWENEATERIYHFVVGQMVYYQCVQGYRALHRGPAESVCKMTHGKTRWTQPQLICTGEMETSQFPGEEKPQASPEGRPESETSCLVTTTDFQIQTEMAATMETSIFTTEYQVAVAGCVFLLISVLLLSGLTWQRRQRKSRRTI
T1 sequence (looked up) 2: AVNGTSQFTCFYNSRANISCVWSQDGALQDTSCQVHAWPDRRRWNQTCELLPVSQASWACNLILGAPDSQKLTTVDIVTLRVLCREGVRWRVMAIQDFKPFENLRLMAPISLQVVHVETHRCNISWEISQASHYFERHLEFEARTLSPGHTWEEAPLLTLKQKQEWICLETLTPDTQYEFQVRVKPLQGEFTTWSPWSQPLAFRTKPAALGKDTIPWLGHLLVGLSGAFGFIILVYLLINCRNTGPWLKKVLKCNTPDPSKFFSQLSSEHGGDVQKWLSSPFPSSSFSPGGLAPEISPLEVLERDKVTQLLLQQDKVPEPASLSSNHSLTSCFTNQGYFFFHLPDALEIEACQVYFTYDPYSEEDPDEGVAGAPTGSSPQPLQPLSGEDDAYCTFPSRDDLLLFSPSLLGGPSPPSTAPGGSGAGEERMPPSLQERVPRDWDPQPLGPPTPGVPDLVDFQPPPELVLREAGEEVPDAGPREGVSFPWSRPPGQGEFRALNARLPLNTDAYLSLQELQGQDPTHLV
T1 sequence (looked up) 3: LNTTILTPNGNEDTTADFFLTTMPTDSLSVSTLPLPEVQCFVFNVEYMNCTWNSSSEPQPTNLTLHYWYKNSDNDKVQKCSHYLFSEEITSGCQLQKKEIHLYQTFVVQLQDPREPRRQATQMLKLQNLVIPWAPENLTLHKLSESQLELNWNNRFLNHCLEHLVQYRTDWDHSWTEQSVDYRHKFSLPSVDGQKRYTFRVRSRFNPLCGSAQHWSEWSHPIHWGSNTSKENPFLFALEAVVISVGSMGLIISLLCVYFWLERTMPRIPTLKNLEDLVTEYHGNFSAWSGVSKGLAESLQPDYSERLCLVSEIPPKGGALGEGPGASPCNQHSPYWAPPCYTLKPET

T2: IL-2βγ dual receptor (Homo sapiens, UniProt P14784+P31785)
T2 construct: Uniprot P14784 1Met-551Val was constructed into plasmid pcDNA3.1(+); Uniprot P31785 1Met-551Thr was constructed into plasmid pcDNA3.1/zeo; expressed in transfected cells; host or cells: 293EC18 cells, transient co-transfection with pCMV/JAK3 and PGL4.52/STAT5RE
T2 sequence (P14784 27-551): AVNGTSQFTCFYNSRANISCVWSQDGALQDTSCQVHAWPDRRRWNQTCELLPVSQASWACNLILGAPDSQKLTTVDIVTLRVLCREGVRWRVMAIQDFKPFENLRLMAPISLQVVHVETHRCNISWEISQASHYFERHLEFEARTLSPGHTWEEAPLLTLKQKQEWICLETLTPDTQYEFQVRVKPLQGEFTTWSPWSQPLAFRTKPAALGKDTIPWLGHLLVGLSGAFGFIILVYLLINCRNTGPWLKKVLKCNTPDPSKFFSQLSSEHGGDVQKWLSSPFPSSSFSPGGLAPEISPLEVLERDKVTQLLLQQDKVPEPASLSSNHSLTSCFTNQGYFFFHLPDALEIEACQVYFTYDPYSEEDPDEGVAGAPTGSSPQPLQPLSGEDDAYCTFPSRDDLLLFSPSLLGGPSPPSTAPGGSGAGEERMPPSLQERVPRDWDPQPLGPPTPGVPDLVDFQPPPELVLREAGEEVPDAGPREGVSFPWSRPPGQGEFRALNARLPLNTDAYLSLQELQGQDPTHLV
T2 sequence (P31785 23-369): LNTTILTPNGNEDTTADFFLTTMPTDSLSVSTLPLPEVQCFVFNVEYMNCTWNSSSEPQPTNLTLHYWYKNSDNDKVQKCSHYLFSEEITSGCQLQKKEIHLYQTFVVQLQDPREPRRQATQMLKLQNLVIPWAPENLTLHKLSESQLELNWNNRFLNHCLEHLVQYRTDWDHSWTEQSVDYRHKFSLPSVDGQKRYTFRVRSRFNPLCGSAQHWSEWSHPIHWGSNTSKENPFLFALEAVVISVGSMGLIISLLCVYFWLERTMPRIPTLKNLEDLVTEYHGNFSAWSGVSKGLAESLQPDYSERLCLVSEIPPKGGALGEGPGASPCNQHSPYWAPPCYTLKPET


What was measured:
[1] = biological target: T1, IL-2Rαβγ triple receptor; assay: cell-based or functional assay
[2] = biological target: T1, IL-2Rαβγ triple receptor; assay: cell-based or functional assay; remark: listed apart in the source
[3] = biological target: T2, IL-2βγ dual receptor; assay: STAT5 reporter gene assay, activation of IL-2βγ dual receptor in 293EC18/βγ/JAK3/STAT5 cells; format: cell-based
Experimental: Since the binding of IL-2 to the β and γ subunits of its receptor induces STAT5 phosphorylation, which subsequently leads to dimerization and translocation into the nucleus to promote target gene transcription, this example evaluates the ability of the mutant IL-2 polypeptides to induce signaling through the IL-2 receptor by measuring STAT5 phosphorylation.
Adherent 293EC18 cells were cultured to about 90% confluence using conventional methods. After trypsin digestion, the cells were resuspended in cell culture medium to 4×10^5 cells/ml and 50 µl/well were added to two 96-well cell culture plates. After incubation at 37°C for 48 h, the supernatant was aspirated and fresh culture medium was added. According to the manufacturer's method, four plasmids, pcDNA3.1(+)/CD122 (constructed by Nanjing Novoacine Biotechnology Co., Ltd, Uniprot P14784 1Met-551Val was constructed into plasmid pcDNA3.1(+)), pcDNA3.1/puro/CD132 (constructed by Nanjing Novoacine Biotechnology Co., Ltd, Uniprot P31785 1Met-551Thr was constructed into plasmid pcDNA3.1/zeo), pCMV/JAK3 (Sino Biological), and PGL4.52/STAT5RE (Promega) were transiently transfected into 293EC18 cells using a cationic transfection reagent (ExFect Transfection Reagent, Vazyme). The obtained cells were named 293EC18/βγ/JAK3/STAT5 cells. Alternatively, five plasmids, pcDNA3.1/zeo/CD25 (constructed by Nanjing Novoacine Biotechnology Co., Ltd, Uniprot P01589 1Met-551Ile constructed into plasmid pcDNA3.1/zeo), pcDNA3.1(+)/CD122 (constructed by Nanjing Novoacine Biotechnology Co., Ltd, Uniprot P14784 1Met-551Val constructed into plasmid pcDNA3.1(+)), pcDNA3.1/puro/CD132 (constructed by Nanjing Novoacine Biotechnology Co., Ltd, UniprotP31785 1Met-551Thr constructed into plasmid pcDNA3.1/zeo), pCMV/JAK3 (Sino Biological), and PGL4.52/STAT5RE (Promega) were transiently transferred into 293EC18 cells, and the obtained cells were named 293EC18/αβγ/JAK3/STAT5 cells. The transfected cells were incubated at 37°C and 5% CO2 for another 6 h.
Each IL2 mutant was diluted 4-fold in a gradient manner using PBS buffer, with a total of 11 dilutions and a starting concentration of 65.2 nM. In the above cell culture plates, 50 µl/well of each of the serially diluted IL2 mutant samples was added in duplicate. Then, the cell culture plate was placed in an incubator at 37°C and 5% CO2 for overnight culture. The cell culture plates were kept at room temperature for 20 ± 5 minutes to equilibrate the plates to room temperature. Bio-Lite Luciferase Assay System reagents that have been mixed and equilibrated to room temperature were added to the cell culture plates to be tested at 100 µl/well, placed on a microplate shaker at 450 rpm to mix for 2 minutes, then allowed to stand at room temperature for 3 minutes, and the chemiluminescence value was detected with an enzyme plate reader.
The logarithm of the final concentration of each IL-2 mutant sample was used as the X-axis, and the chemiluminescence detection results were used as the Y-axis for plotting. Data were analyzed using the four-parameter logistic regression model in GraphPad Prism 9. Table 2 EC50 values for the activation of the IL-2αβγ triple receptor by PEG-IL-2 mutants as determined by a reporter gene assay.
According to the method of Example 3, each polyethylene glycol-modified mutant obtained in this example was assessed for the binding preference to the IL2 receptors by a reporter assay. Table 4 EC50 values for the activation of the IL-2αβγ triple receptor by PEG-IL-2 mutants as determined by a reporter gene assay.
Referring to Example 3, the phosphorylation of STAT5 was used to evaluate the ability of the PEG-modified IL-2 mutants having a non-natural amino acid mutation prepared in Example 14 to induce signal transduction via the IL-2 receptor. […]

Molecule | Activation of IL-2αβγ receptor EC50 (STAT5 luciferase reporter gene assay) [1] | Activation of IL-2αβγ triple receptor EC50 (STAT5 luciferase reporter gene assay) [2] | also measured
40k-1PEG-IL2-N88R-N77Prk (ligand) APTSSSTKKTQLQLEHLLLDLQMILNGINNYKNPKLTRMLTFKFYMPKKATELKHLQCLEEELKPLEEVLNLAQSK[Prk](PEG‑azide 40 kDa)FHLRPRDLISRINVIVLELKGSETTFMCEYADETATIVEFLNRWITFSQSIISTLT | 0.517 nM |  | 
20k-1PEG-IL2-N88R-N77pAcF (ligand, not fully specified) APTSSSTKKTQLQLEHLLLDLQMILNGINNYKNPKLTRMLTFKFYMPKKATELKHLQCLEEELKPLEEVLNLAQSK[Phe(4-Ac)](PEG‑hydroxylamine 20 kDa)FHLRPRDLISRINVIVLELKGSETTFMCEYADETATIVEFLNRWITFSQSIISTLT |  | 0.5 nM | 
60k-1PEG-IL2-N88R-N77pAcF (ligand) APTSSSTKKTQLQLEHLLLDLQMILNGINNYKNPKLTRMLTFKFYMPKKATELKHLQCLEEELKPLEEVLNLAQSK[Phe(4-Ac)](PEG60k)FHLRPRDLISRINVIVLELKGSETTFMCEYADETATIVEFLNRWITFSQSIISTLT |  | 5.12 nM | 
80k-1PEG-IL2-N88R-S75C: IL-2 mutant N88R, S75C with one 80k PEG conjugated to cysteine 75 (conjugate) APTSSSTKKTQLQLEHLLLDLQMILNGINNYKNPKLTRMLTFKFYMPKKATELKHLQCLEEELKPLEEVLNLAQC(PEG 80 kDa)KNFHLRPRDLISRINVIVLELKGSETTFMCEYADETATIVEFLNRWITFSQSIISTLT |  |  | activation effect on the IL-2Rβγ dual receptor compared with control IL-2 N88R ([3]; Figure 1, concentration of 65.2 nM): lower activation effects; activation effect on / affinity to IL-2Rβγ dual receptor compared with control IL-2 N88R ([3]; Figure 2, all concentrations): further reduced the affinity to IL-2Rβγ
20k-1PEG-IL2-N88R-N33Prk (ligand) APTSSSTKKTQLQLEHLLLDLQMILNGINNYK[Prk](PEG‑azide 20 kDa)PKLTRMLTFKFYMPKKATELKHLQCLEEELKPLEEVLNLAQSKNFHLRPRDLISRINVIVLELKGSETTFMCEYADETATIVEFLNRWITFSQSIISTLT | 0.323 nM |  | 
60k-1PEG-IL2-N88R-N33pAcF (ligand) APTSSSTKKTQLQLEHLLLDLQMILNGINNYK[Phe(4-Ac)](PEG60k)PKLTRMLTFKFYMPKKATELKHLQCLEEELKPLEEVLNLAQSKNFHLRPRDLISRINVIVLELKGSETTFMCEYADETATIVEFLNRWITFSQSIISTLT |  | 9.21 nM | 
60k-1PEG-IL2-N88R-N77Prk (ligand) APTSSSTKKTQLQLEHLLLDLQMILNGINNYKNPKLTRMLTFKFYMPKKATELKHLQCLEEELKPLEEVLNLAQSK[Prk](PEG 60 kDa)FHLRPRDLISRINVIVLELKGSETTFMCEYADETATIVEFLNRWITFSQSIISTLT | 0.417 nM |  | 
40k-1PEG-IL2-N88R-N33pAcF (ligand, not fully specified) APTSSSTKKTQLQLEHLLLDLQMILNGINNYK[Phe(4-Ac)](PEG‑hydroxylamine 40 kDa)PKLTRMLTFKFYMPKKATELKHLQCLEEELKPLEEVLNLAQSKNFHLRPRDLISRINVIVLELKGSETTFMCEYADETATIVEFLNRWITFSQSIISTLT |  | 3.69 nM | 
20k-1PEG-IL2-N88R-N33pAcF (ligand, not fully specified) APTSSSTKKTQLQLEHLLLDLQMILNGINNYK[Phe(4-Ac)](PEG‑hydroxylamine 20 kDa)PKLTRMLTFKFYMPKKATELKHLQCLEEELKPLEEVLNLAQSKNFHLRPRDLISRINVIVLELKGSETTFMCEYADETATIVEFLNRWITFSQSIISTLT |  | 0.319 nM | 
60k-1PEG-IL2-N88R-N33Prk (ligand) APTSSSTKKTQLQLEHLLLDLQMILNGINNYK[Prk](PEG 60 kDa)PKLTRMLTFKFYMPKKATELKHLQCLEEELKPLEEVLNLAQSKNFHLRPRDLISRINVIVLELKGSETTFMCEYADETATIVEFLNRWITFSQSIISTLT | 0.368 nM |  | 
40k-1PEG-IL2-N88R-N33Prk (ligand) APTSSSTKKTQLQLEHLLLDLQMILNGINNYK[Prk](PEG‑azide 40 kDa)PKLTRMLTFKFYMPKKATELKHLQCLEEELKPLEEVLNLAQSKNFHLRPRDLISRINVIVLELKGSETTFMCEYADETATIVEFLNRWITFSQSIISTLT | 0.443 nM |  | 
40k-1PEG-IL2-N88R-N77pAcF (ligand, not fully specified) APTSSSTKKTQLQLEHLLLDLQMILNGINNYKNPKLTRMLTFKFYMPKKATELKHLQCLEEELKPLEEVLNLAQSK[Phe(4-Ac)](PEG‑hydroxylamine 40 kDa)FHLRPRDLISRINVIVLELKGSETTFMCEYADETATIVEFLNRWITFSQSIISTLT |  | 1.92 nM | 
20k-1PEG-IL2-N88R-N77Prk (ligand) APTSSSTKKTQLQLEHLLLDLQMILNGINNYKNPKLTRMLTFKFYMPKKATELKHLQCLEEELKPLEEVLNLAQSK[Prk](PEG‑azide 20 kDa)FHLRPRDLISRINVIVLELKGSETTFMCEYADETATIVEFLNRWITFSQSIISTLT | 0.361 nM |  | 

Reference: EP4631972A1, “SITE-SPECIFIC COUPLED PEGYLATED INTERLEUKIN-2 MUTANT WITH RECEPTOR AFFINITY PREFERENCE AND USE THEREOF” (priority 2022, dated 2024)
